Laboratory results: PMC3638996 (Structure (London, England : 1993), 2013)

T1: Murine Gαq (amino acids 7-359), biotinylated (mouse, UniProt P21279 7-359, biotinylated with biotinamidohexanoic acid N-hydroxysuccinimide)
T1 sequence (looked up): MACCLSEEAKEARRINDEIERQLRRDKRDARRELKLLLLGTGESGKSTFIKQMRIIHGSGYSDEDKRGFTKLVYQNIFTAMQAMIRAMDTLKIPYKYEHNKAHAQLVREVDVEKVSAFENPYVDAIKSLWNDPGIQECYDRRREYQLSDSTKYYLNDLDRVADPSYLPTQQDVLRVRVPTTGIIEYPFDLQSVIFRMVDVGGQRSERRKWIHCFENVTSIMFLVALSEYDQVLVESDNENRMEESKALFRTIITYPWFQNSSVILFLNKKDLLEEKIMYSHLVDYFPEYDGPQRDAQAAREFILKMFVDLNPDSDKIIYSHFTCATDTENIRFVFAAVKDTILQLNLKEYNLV


Each binder was assayed against T1, Murine Gαq (amino acids 7-359), … (assay: bead-based flow cytometry competition assay).

IC50 [nM] | Binder
270 | RGS2 RH domain (residues 72-203), wild type (domain or fragment, human) GEFGSPSPEEAQLWSEAFDELLASKYGLAAFRAFLKSEFCEENIEFWLACEDFKKTKSPQKLSSKARKIYTDFIEKEAPKEINIDFQTKTLIAQNIQEATSGCFTTAQKRVYSLMENNSYPRFLESEFYQDLCKKPQ
170 | RGS2 RH domain (residues 72-203) N183F (domain or fragment, human) GEFGSPSPEEAQLWSEAFDELLASKYGLAAFRAFLKSEFCEENIEFWLACEDFKKTKSPQKLSSKARKIYTDFIEKEAPKEINIDFQTKTLIAQNIQEATSGCFTTAQKRVYSLMEFNSYPRFLESEFYQDLCKKPQ
690 | RGS2 RH domain (residues 72-203) S179N (domain or fragment, human) GEFGSPSPEEAQLWSEAFDELLASKYGLAAFRAFLKSEFCEENIEFWLACEDFKKTKSPQKLSSKARKIYTDFIEKEAPKEINIDFQTKTLIAQNIQEATSGCFTTAQKRVYNLMENNSYPRFLESEFYQDLCKKPQ
300 | RGS2 RH domain (residues 72-203) E182A (domain or fragment, human) GEFGSPSPEEAQLWSEAFDELLASKYGLAAFRAFLKSEFCEENIEFWLACEDFKKTKSPQKLSSKARKIYTDFIEKEAPKEINIDFQTKTLIAQNIQEATSGCFTTAQKRVYSLMANNSYPRFLESEFYQDLCKKPQ
560 | RGS2 RH domain (residues 72-203) K175A (domain or fragment, human) GEFGSPSPEEAQLWSEAFDELLASKYGLAAFRAFLKSEFCEENIEFWLACEDFKKTKSPQKLSSKARKIYTDFIEKEAPKEINIDFQTKTLIAQNIQEATSGCFTTAQARVYSLMENNSYPRFLESEFYQDLCKKPQ
1500 | RGS2 RH domain (residues 72-203) N183A (domain or fragment, human) GEFGSPSPEEAQLWSEAFDELLASKYGLAAFRAFLKSEFCEENIEFWLACEDFKKTKSPQKLSSKARKIYTDFIEKEAPKEINIDFQTKTLIAQNIQEATSGCFTTAQKRVYSLMEANSYPRFLESEFYQDLCKKPQ
130 | RGS2 RH domain (residues 72-203) S179M (domain or fragment, human) GEFGSPSPEEAQLWSEAFDELLASKYGLAAFRAFLKSEFCEENIEFWLACEDFKKTKSPQKLSSKARKIYTDFIEKEAPKEINIDFQTKTLIAQNIQEATSGCFTTAQKRVYMLMENNSYPRFLESEFYQDLCKKPQ
3400 | RGS2 RH domain (residues 72-203) S179K (domain or fragment, human) GEFGSPSPEEAQLWSEAFDELLASKYGLAAFRAFLKSEFCEENIEFWLACEDFKKTKSPQKLSSKARKIYTDFIEKEAPKEINIDFQTKTLIAQNIQEATSGCFTTAQKRVYKLMENNSYPRFLESEFYQDLCKKPQ
7100 | RGS2 RH domain (residues 72-203) N183K (domain or fragment, human) GEFGSPSPEEAQLWSEAFDELLASKYGLAAFRAFLKSEFCEENIEFWLACEDFKKTKSPQKLSSKARKIYTDFIEKEAPKEINIDFQTKTLIAQNIQEATSGCFTTAQKRVYSLMEKNSYPRFLESEFYQDLCKKPQ
16000 | RGS2 RH domain (residues 72-203) S179D (domain or fragment, human) GEFGSPSPEEAQLWSEAFDELLASKYGLAAFRAFLKSEFCEENIEFWLACEDFKKTKSPQKLSSKARKIYTDFIEKEAPKEINIDFQTKTLIAQNIQEATSGCFTTAQKRVYDLMENNSYPRFLESEFYQDLCKKPQ

The binders below were run against Gαi/q-R183C chimera (Gαq R183C with the N-terminal helix of Gαi), biotinylated (not stated | mouse) (assay: bead-based flow cytometry binding assay).

Kd [nM] | Binder
22 | Full-length RGS2, fluorescently labeled with Alexa Fluor-488 (natural protein, human, UniProt P41220 1-211, looked up, labeled with Alexa Fluor-488 carboxylic acid, 2,3,5,6-tetrafluorophenyl ester, 5-isomer) MQSAMFLAVQHDCRPMDKSAGSGHKSEEKREKMKRTLLKDWKTRLSYFLQNSSTPGKPKTGKKSKQQAFIKPSPEEAQLWSEAFDELLASKYGLAAFRAFLKSEFCEENIEFWLACEDFKKTKSPQKLSSKARKIYTDFIEKEAPKEINIDFQTKTLIAQNIQEATSGCFTTAQKRVYSLMENNSYPRFLESEFYQDLCKKPQITTEPHAT

The binders below were run against T1, Murine Gαq (amino acids 7-359), … (assay: bead-based flow cytometry binding assay).

Kd [nM] | Binder
3.3 | Full-length RGS2, fluorescently labeled with Alexa Fluor-488 (natural protein, human, UniProt P41220 1-211, looked up, labeled with Alexa Fluor-488 carboxylic acid, 2,3,5,6-tetrafluorophenyl ester, 5-isomer) MQSAMFLAVQHDCRPMDKSAGSGHKSEEKREKMKRTLLKDWKTRLSYFLQNSSTPGKPKTGKKSKQQAFIKPSPEEAQLWSEAFDELLASKYGLAAFRAFLKSEFCEENIEFWLACEDFKKTKSPQKLSSKARKIYTDFIEKEAPKEINIDFQTKTLIAQNIQEATSGCFTTAQKRVYSLMENNSYPRFLESEFYQDLCKKPQITTEPHAT
